Measurements published in patent publication US20160039936A1, “FIBROBLAST GROWTH FACTOR RECEPTOR INHIBITION FOR THE TREATMENT OF DISEASE” (UNIVERSITY OF MIAMI, priority 2011, published 2016).

Assays:
NFAT = NFAT gene reporter assay in NRVM; assay type: cell-based, rat; settings: FGF 25 ng/ml, 2 hours
Experimental: The assay was done as described previously (Kuhn et al., 2009). Briefly, 24 hours after plating, NRVM were serum-starved and infected by an adenovirus (AdNFAT-luc, 20 moi) carrying a firefly luciferase construct under the transcriptional control of three consensus NFAT binding sites (Biomyx). To enable normalization of the ensuing measurements, NRVMs were also infected with an adenovirus (AdRenilla, 10 moi) encoding a renilla luciferase under the transcriptional control of a CMV promoter. Cells were incubated in FGF23 or FGF2 at 25 ng/ml for 2 hours after pre-treatment with or without cyclosporine A (1 μg/ml; Sigma-Aldrich), AZD4547 (5 nM; ChemieTek), or anti-FGFR4/U3-11 (U3Pharma; 10 μg/ml) for 60 minutes. Chemiluminescence was detected and quantified in 4×10^5 cells using the Dual-Luciferase Reporter Assay System (Promega) according to the manufacturer's instructions, and Infinite M200 PRO reader (Tecan). Firefly luciferase activities were then normalized to renilla luciferase activities. All experiments were conducted in triplicates and repeated three times.

HEK293 cells = experiment: FGF-FGFR-dependent signaling in HEK293 cells (Western blot, immunoprecipitation); assay type: cell-based; settings: for phosphorylated PLCγ levels / phosphorylation of FRS2γ (FGF2: FRS2γ and ERK1/2): HEK293, untransfected, 30 minutes
Experimental: HEK293 cells were grown in 6-well plates or 10 cm-culture dishes and transiently transfected with FuGene 6 (Roche) according to the manufacturer's protocol. After 36 hours, cells were serum-starved for 12-16 hours followed by treatment with FGF23 or FGF2 at 25 ng/ml for 15 or 30 minutes.
HEK293 cells, NRVM or NMVM were treated with growth factors for 30 minutes to analyze activation of signal transduction mediators, or for 48 hours to analyze expression levels of hypertrophic marker proteins. Cells were scraped from 6-well plates using 500 μl CHAPS extraction buffer (20 mM Tris-HCl pH7.5, 500 mM NaCl, 0.5% CHAPS, protease inhibitor cocktail (Roche), protein phosphatase inhibitors [Sigma-Aldrich]) and incubated on ice for 30 minutes. The cell lysate was centrifuged at 14,000 rpm and 4° C. for 30 minutes, and the supernatant boiled in sample buffer and analyzed by SDS-PAGE and immunoblotting. For protein extraction from mouse hearts, tissue was isolated, minced and homogenized in RIPA extraction buffer (50 mM Tris-HCl pH 7.5, 200 mM NaCl, 1% Triton X-100, 0.25% DOC, 1 mM EDTA, 1 mM EGTA, protease and phosphatase inhibitors) at 1:10 (w:v), and protein lysates were prepared as described above.
Antibodies to β-MHC (NOQ7.5.4D; Sigma-Aldrich; 1:1,000), RCAN1 (rabbit polyclonal, provided by Timothy McKinsey, University of Colorado, Denver, Colo. (Harrison et al., 2004); 1:1,000), FGFR4 (C-16; Santa Cruz; 1:1,000), total and phospho-ERK1/2 (Cell Signaling; 1:1,000), total and phospho-FRS2α (Santa Cruz 1:1,000; Cell Signaling; 1:1,000), total and phospho-PLCγ (Cell Signaling; 1:1,000), FLAG (M5, Sigma-Aldrich; 1:10,000), V5 (Sigma-Aldrich; 1:10,000) and GAPDH (Abcam; 1:10,000) were used as primary antibodies in 5% milk in TBST (RCAN1, FGFR4, FLAG, V5), 5% BSA in TBST (phospho-FRS2α) or 1.5% FBS in TBS (β-MHC, total and phospho-ERK1/2, total FRS2α, total and phospho-PLCγ, GAPDH) for 1-2 hours. Horseradish peroxidase-conjugated goat-anti-mouse and goat-anti-rabbit (Promega; 1:10,000) were secondary antibodies.
HEK293 cells in 10 cm-dishes were treated with growth factors for 30 minutes, cells were scraped using 1 ml IP buffer (50 mM Tris-HCl pH7.5, 150 mM NaCl, 5 mM MgCl2, 2 mM EGTA, 1% Triton X-100, 5% Glycerol, protease and phosphatase inhibitors), and protein lysates were prepared as described above. V5-tagged proteins were immunoprecipitated using 25 μl of anti-V5 agarose beads (Sigma-Aldrich). After 5 washes in IP buffer, proteins were eluted in 100 μl of sample buffer and analyzed by SDS-PAGE and immunoblotting. For endogenous immunoprecipitation studies from NRVM, cells in 10cm-dishes were treated with growth factors for 30 minutes. Some cells were pre-treated with FGFR4 blocking antibody at 10 μg/ml for 1 hour (human monoclonal, U3-11; U3Pharma). Cells were scraped in 1 ml RIPA buffer, and protein lysates were incubated with 2 μg of anti-FGFR4 (C-16; Santa Cruz) or anti-GFP (Clonetech) as negative control at 4° C. under rotation overnight. We added 50 μl of a 1:1 mix of Protein A on sepharose beads and Protein G on agarose beads that were previously equilibrated in RIPA buffer, followed by incubation at 4° C. under rotation for 2 hours, protein elution in sample buffer, and SDS-PAGE and Western blot analyses.

Molecule	luciferase activity (NFAT)	phosphorylated PLCγ levels (HEK293 cells)	phosphorylation of FRS2γ (FGF2: FRS2γ and ERK1/2) (HEK293 cells)	phospho-PLCγ levels (HEK293 cells; HEK293 overexpressing FGFR4Arg385, 30 minutes)	ERK1/2 phosphorylation (HEK293 cells; HEK293 overexpressing V5-tagged FGFR4)	phosphorylation of PLCγ (HEK293 cells; HEK293 overexpressing ectopic β-klotho)	FGFR isoform binding to PLCγ (co-precipitation) (HEK293 cells; HEK293 transfected with V5-tagged FGFR1-4, 30 minutes)	levels of phospho-ERK and Egr-1 (HEK293 cells; HEK293 transiently expressing FLAG-tagged klotho)	activation of PLCγ (HEK293 cells; HEK293 with ectopic α-klotho)	phosphorylation of FRS2α and ERK1/2 (HEK293 cells; HEK293 with ectopic α-klotho)	FGF2-mediated FRS2α/Ras/MAPK signaling (HEK293 cells; HEK293, presence or absence of α-klotho or β-klotho)
FGF23: recombinant mouse FGF23, 6His-tagged Tyr25-Val251 (Arg179Gln) (R&D Systems) (protein, left off: small tags and cut ends) YPDTSPLLGSNWGSLTHLYTATARTSYHLQIHRDGHVDGTPHQTIYSALMITSEDAGSVVITGAMTRRFLCMDLHGNIFGSLHFSPENCKFRQWTLENGYDVYLSQKHHYLVSLGRAKRIFQPGTNPPPFSQFLARRNEVPLLHFYTVRPRRHTQSAEDPPERDPLNVLKPRPRATPVPVSCSRELPSAEEGGPAASDPLGVLRRGRGDARGGAGGADRCRPFPRFV	significant elevation	increased	did not induce	further increased	does not increase	induced phosphorylation	only FGFR4 bound PLCγ	increased levels	did not activate	increased	–
FGF2: recombinant mouse FGF2 (Ala11-Ser154) (R&D Systems) (protein) ALPEDGGAAFPPGHFKDPKRLYCKNGGFFLRIHPDGRVDGVREKSDPHVKLQLQAEERGVVSIKGVCANRYLAMKEDGRLLASKCVTEECFFFERLESNNYNTYRSRKYSSWYVALKRTGQYKLGSKTGPGQKAILFLPMSAKS	did not increase	had no effect	increased	–	–	–	–	–	–	–	unaffected
